In test [1] the target is Proliferating Cell Nuclear Antigen (PCNA) (UniProt P12004 1-261). Put plainly: FP.
Test [2] has as its target RPA32 winged-helix domain (RPA32-WH) (amino acids 202-270) (UniProt P15927 202-270). Put plainly: FP.

No end group written: not given here.

Chain of RPA32 winged-helix domain (RPA32-WH) (amino acids 202-270) (P15927 202-270): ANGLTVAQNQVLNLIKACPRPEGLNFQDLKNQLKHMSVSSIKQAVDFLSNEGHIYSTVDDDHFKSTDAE
Chain of Proliferating Cell Nuclear Antigen (PCNA) (P12004 whole entry, the tested form may be a part): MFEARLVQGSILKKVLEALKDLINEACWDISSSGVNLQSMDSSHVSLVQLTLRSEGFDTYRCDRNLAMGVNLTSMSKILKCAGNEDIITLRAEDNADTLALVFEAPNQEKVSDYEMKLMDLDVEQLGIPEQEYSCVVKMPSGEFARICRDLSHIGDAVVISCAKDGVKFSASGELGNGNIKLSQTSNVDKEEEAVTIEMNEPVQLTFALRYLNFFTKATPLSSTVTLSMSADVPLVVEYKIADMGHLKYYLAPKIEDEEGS

For SAVLQKKITDYFHPKK (also: fluorescein-labeled, position not given here) [Pogo-Ligase peptide], in test [1], binding was put at a Kd of 0.051 µM.

In test [2], LTEEQRKKIEENRQKALARRAEKLLA (also: fluorescein-labeled, position not given here) [SMARCAL peptide] returned a Kd of 13.5 µM.

(Values after paper PMC13292882 (2025).)
